Results taken from US20090074762A1.

Target: T1, TweakR on cells (TweakR-expressing cells, TweakR transfectant cell line, A375 melanoma cells, tumor tissue) (human) (UniProt Q9NP84)
T1 sequence: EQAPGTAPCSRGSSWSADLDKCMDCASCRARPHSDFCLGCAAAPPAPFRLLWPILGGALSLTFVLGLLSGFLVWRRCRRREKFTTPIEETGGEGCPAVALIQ
Assay: cell-based or functional assay

agonist activity (IL-8 release assay): 28%
Substance: anti-TweakR antibody ITEM2
